# Laboratory results as given in article PMC9274624.
# Target: Malayan pangolin ACE2 extracellular domain (residues 1-740) fused with the Fc domain of mouse IgG (Malayan pangolin)
# Experiment: SPR
substance,measurement,value
SARS-CoV-2 Delta RBD (residues 319-541) (from UniProt P0DTC2 319-541) (domain or fragment),Kd,58.2 nM
